From patent publication US20220017630A1 (JIANGSU SIMCERE PHARMACEUTICAL, published 2022) come the findings set out here.

Broadly, the Kd is the equilibrium constant for the complex coming apart. The term koff denotes a measure of how fast the partners let go of each other. Broadly, the kon is the rate constant with which the complex forms.

Test [1] addresses T1, mouse TNFR2 (mouse, UniProt P25119 23-258, limits assumed).
T1 sequence (looked up): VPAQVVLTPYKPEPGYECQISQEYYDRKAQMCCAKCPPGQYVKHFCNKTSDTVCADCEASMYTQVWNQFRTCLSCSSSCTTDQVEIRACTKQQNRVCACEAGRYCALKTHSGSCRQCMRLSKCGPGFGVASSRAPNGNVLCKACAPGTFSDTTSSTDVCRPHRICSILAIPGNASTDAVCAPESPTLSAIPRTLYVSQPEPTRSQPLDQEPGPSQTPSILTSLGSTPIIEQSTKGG
Put plainly: ELISA. On the technique in general: An ELISA detects its analyte on a solid surface through an enzyme-linked reagent.

The target of test [2] is T2, human CREG-His protein (human, UniProt O75629 32-220, limits assumed).
T2 construct: Control antigen in ELISA; also called control human CREG-His
T2 sequence (looked up): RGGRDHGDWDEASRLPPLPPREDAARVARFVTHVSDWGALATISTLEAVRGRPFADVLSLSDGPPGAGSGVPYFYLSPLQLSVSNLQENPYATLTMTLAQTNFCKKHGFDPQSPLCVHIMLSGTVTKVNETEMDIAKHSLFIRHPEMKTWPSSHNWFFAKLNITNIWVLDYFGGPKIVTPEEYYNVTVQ
Put plainly: ELISA.

For test [3], the target named is T3, Human TNFR2 recombinant protein (Sino 10417-H08H) (human, UniProt P20333 23-257).
T3 construct: also called hTNFR2 (His tag)
T3 sequence (looked up): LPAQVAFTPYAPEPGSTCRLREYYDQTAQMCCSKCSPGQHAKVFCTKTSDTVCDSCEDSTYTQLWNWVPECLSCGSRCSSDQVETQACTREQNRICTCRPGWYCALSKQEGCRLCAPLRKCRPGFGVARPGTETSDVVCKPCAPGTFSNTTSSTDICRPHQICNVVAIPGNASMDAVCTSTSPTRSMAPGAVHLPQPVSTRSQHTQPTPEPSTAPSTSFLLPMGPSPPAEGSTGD
The test can be described thus: SPR Biacore, antibody on Protein A chip, TNFR2 analyte. The method, then: In this experiment, Protein A chip was used, and the time required for the chip to capture the diluted antibody was determined by manual run, so that the Rmax of the saturated binding antigen was 50 RU. Human TNFR2 (Sino 10417-H08H) and cynomolgus TNFR2 (Sino 90102-C08H) were diluted to 32, 16, 8, 4, 2 nM. The affinity of antibody and antigen was measured by multi-cycle kinetics. In each cycle, anti-TNFR2 antibodies were injected prior to the injection of gradient concentrations of TNFR2 protein allowing the occurrence of antibody-antigen association and dissociation. After each cycle, the Protein A chip was regenerated with Glycine pH1.5 (to remove the protein on the chip). BIAcore T200 analysis software was used to calculate the affinity KD of antibody binding to antigen.
In general terms: Surface plasmon resonance follows binding to a sensor surface in real time, without labels.

The target of test [4] is T4, human TNFR2 (Novoprotein, Catalog No. C830) (human, UniProt P20333 23-257, limits assumed).
T4 construct: construct not described; also called TNFR2 protein
T4 sequence (looked up): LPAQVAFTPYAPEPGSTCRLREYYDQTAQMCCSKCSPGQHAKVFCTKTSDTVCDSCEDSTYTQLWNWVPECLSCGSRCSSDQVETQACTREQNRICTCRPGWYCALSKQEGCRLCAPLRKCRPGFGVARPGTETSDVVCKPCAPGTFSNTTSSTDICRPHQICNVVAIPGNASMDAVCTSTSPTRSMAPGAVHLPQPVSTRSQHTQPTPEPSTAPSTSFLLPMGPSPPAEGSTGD
Put plainly: blocking ELISA, TNFα-biotin on coated human TNFR2, antibody 20 nM. The method, then:
A microplate was pre-coated with 100 μl/well of 1 μg/ml human TNFR2 (Novoprotein, Catalog No. C830). […] After washing the plate, a Streptavidin-HRP working solution (1:10000 dilution) was added at 100 μl/well, and incubated with shaking at room temperature for 40 min. The plate was washed again, the HRP substrate TMB was added for color development, the termination solution was added to terminate the reaction, and the microplate reader was used to read the absorption value.

Test [5] addresses T5, human TNFR2 on the cell surface (CHO-TNFR2 cells; human Treg cells) (human, UniProt P20333 23-461).
T5 construct: whole, on cells; The assay field of each row says which cells; also called TNFR2-CHO cell; TNFR2 on Treg cells
T5 sequence (looked up): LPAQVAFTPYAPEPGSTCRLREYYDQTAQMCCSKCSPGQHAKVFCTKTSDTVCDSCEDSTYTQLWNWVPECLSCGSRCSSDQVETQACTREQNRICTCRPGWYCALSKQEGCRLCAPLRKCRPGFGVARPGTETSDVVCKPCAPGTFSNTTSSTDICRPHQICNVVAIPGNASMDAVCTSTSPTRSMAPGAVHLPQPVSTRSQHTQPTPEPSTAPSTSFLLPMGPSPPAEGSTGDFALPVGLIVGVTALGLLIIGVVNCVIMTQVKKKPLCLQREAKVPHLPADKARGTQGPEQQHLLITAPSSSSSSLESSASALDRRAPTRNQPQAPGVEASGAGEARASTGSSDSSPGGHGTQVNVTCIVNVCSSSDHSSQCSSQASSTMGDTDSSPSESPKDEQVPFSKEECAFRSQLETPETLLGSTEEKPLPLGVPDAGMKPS
The test can be described thus: flow cytometry, blocking of TNFα-biotin on CHO-TNFR2 cells; against 002#. How it is done:
(§1) CHO cells that stably overexpressed human TNFR2 were used for experiments. The cells were resuscitated and passaged until in good state, and the expression level of human TNFR2 on the cells was assessed by FACS. Compared to the isotype control, the assay could be carried out when the fold change of mean fluorescence intensity (MFI) was more than 100 times.
(§2) CHO-TNFR2 cells were digested, washed twice with DPBS and stained with Live/Dead (L/D) at room temperature for 20 min, and then seeded at 1×10⁵ cells/50 μl/well. […] The diluted antibodies were added 50 μl/well into wells pre-seeded with cells, and gently blown and mixed to make the final concentrations of the antibodies to 20, 6.67, 2.22, 0.74, 0.247, 0.08, 0.027 and 0 nM, respectively followed by incubation at 4° C. for 30 min. […] After washing twice with the staining buffer, 100 μl/well of PE-streptavidin was added and incubated at 4° C. for 30 min. After additional washing with the staining buffer twice, 150 μl resuspended cells was analyzed using an flow cytometry. Taking the logarithmic value of the antibody concentrations as abscissa and the corresponding MFI value as ordinate, the inhibition curve of the antibody was drawn, and the IC50 value was calculated by four parameters fitting.
For orientation: A flow cytometer gives signals particle by particle.

For test [6], the target named is T5, human TNFR2 on the cell surface …. The test can be described thus: flow cytometry, blocking of TNFα-biotin on CHO-TNFR2 cells; AUC for 002# / AUC for antibody x 100. The method, then:
as §1, §2

B1: TNFR2 antibody #352 (antibody, V domains shown)
VH: EVQLQESGPGLVAPSQSLSITCTVSGFSLTSYGVHWVRQPPGKGLEWLVVIWSDGGTTYNSALKSRLSISKDNSKSQVFLKMNSLQTDDTAMYYCARHDDDGYYAMDYWGQGTTVTVSS
VL: DIVLTQSPSLMSASPGEKVTMTCSASSSVGYMYWYQQKPRSSPKPWIYLTSNLASGVPARFSGSGSGTSYSLTISSMEVEDAATYYCQQWSSDPFTFGSGTKLEIK
For the molecule B1, the binding result in test [1] was “no binding (tested: 28 ng/ml)”. Also, in test [2], the binding result was “no binding (tested: 28 ng/ml)”. In test [3], the Kd turned out to be 1.41 nM, the koff is 0.00225 s⁻¹ and the kon stood at 1.59e+06 M⁻¹ s⁻¹. Also, in test [4], the “ELISA OD of antibodies to be tested (20 nM)” value (shortened to “ELISA OD of antibodies”) was 0.474 OD. The “IC50 Relative Value %” value in test [5] stood at 171%. Besides, the AUC % in test [6] stood at 116%.

B2: TNFR2 antibody #365 (antibody, V domains shown)
VH: EVQLQESGPGLVQPSQSLSITCTVSGFSLTSYGVHWVRQSPGKGLEWLGLIWSDGSPDYSAAFISRLSINKDNSKSQVFFKMNSLQADDTAIYYCARNDDGGDYVMDYWGQGTTVTVSS
VL: EIVLTQSPALMSASPGEKVTMTCSASSSVSYMYWYQQKPRSSPKPWIYLTSNLASGVPARFSGSGSGTSYSLTISSMEAEDAATYYCQQWTSNPLTFGAGTKLEIK
Turning to B2, the binding result in test [1] is on record as “no binding (tested: 28 ng/ml)”. Moreover, the binding result in test [2] is listed as “no binding (tested: 28 ng/ml)”. Further, in test [3], the equilibrium dissociation constant (Kd) worked out at 0.952 nM, the koff came out at 0.00209 s⁻¹ and the kon was 2.2e+06 M⁻¹ s⁻¹. In addition, in test [4], the “ELISA OD of antibodies” value came to 0.418 OD. The “IC50 Relative Value %” value in test [5] is 232%. For the same molecule, the AUC % in test [6] is 117%.

B3: TNFR2 antibody #395 (antibody, V domains shown)
VH: EVQLQESGPVLVQPSQSLSITCTVSGFSLTSYSVHWVRQSPGKGLEWLGVIWSDGGTDYSAAFISRLSISKDNSKSQVFFKMNSLQADDTAIYYCARNDDGGDYAMDYWGQGTTVTVSS
VL: EIVLTQSPALMSASPGEKVTMTCSASSSVSYMYWYQQKPRSSPKPWIYLTSNLASGVPARFSGSGSGTSYSLTISSMEAEDAATYYCQQWSSNPLTFGAGTKLEIK
In the case of B3, in test [1], the binding result was “no binding (tested: 28 ng/ml)”. For the same molecule, the binding result in test [2] is “no binding (tested: 28 ng/ml)”. In test [3], the Kd turned out to be 0.14 nM, the koff worked out at 0.000237 s⁻¹ and the kon came out at 1.7e+06 M⁻¹ s⁻¹. Also, in test [4], the “ELISA OD of antibodies” value was 0.282 OD. In addition, the “IC50 Relative Value %” value in test [5] was 270%. The AUC % in test [6] was found to be 107%.
